Test results from EP3108897A1 (F. Hoffmann-La Roche AG, dated 2016).
Values belong to the substance of their own block, whether it stands above or below them.

Experiments:
[1] = target: human mutant CSF-1R L301S Y969F (full-length) (human) (UniProt P07333); assay: cell-based or functional assay
[2] = target: human wildtype CSF-1R (full-length) (human, UniProt P07333 20-972); assay: cell-based or functional assay

IC50 CSF-1R Phosphorylation (phospho/total CSF-1R ELISA on lysates of NIH3T3-CSF-1R cells stimulated with hu CSF-1) [2]: 1.01 µg/mL
Substance: Anti CSF-1R SC 2-4A5 (Santa Cruz Biotechnology, US) (antibody)
Mutant CSF-1R IC30 (CellTiterGlo viability of NIH3T3-mutant CSF-1R spheroids, 3 days) [1]: 2.56 µg/mL
wtCSF-1R IC30 (CellTiterGlo viability of NIH3T3-wtCSF-1R spheroids, 3 days) [2]: 16.6 µg/mL

Substance: goat polyclonal anti-CSF-1R antibody ab10676 (abcam)
% inhibition of cell viability at 20 µg/ml (NIH3T3-mutant CSF-1R spheroids) [1]: 0%
Mutant CSF-1R IC30 (CellTiterGlo viability of NIH3T3-mutant CSF-1R spheroids, 3 days) [1]: > 20 µg/mL
wtCSF-1R IC30 (CellTiterGlo viability of NIH3T3-wtCSF-1R spheroids, 3 days) [2]: 14.2 µg/mL
